Assay [1] has as its target T1, CHRM1-VC (human, UniProt P11229 1-460).
T1 construct: whole, on cells; Adenovirus-expressed in U-2 OS cells; not shown: VC155, C-terminal fragment of Venus
T1 sequence (looked up): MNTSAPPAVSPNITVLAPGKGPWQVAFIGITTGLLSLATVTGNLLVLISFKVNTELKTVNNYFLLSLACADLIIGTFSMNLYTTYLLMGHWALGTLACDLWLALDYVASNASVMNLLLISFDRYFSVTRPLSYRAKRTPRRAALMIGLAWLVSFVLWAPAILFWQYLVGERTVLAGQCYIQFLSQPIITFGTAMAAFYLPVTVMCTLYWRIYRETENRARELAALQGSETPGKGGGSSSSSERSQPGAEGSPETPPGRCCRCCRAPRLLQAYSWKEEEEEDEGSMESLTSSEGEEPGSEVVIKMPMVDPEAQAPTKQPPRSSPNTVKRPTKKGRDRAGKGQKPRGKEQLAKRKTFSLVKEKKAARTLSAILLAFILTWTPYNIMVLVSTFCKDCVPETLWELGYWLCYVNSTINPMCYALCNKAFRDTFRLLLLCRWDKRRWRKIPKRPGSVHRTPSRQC
Briefly: co-internalization of CXCR4-GFP after GPCRx agonist, U-2 OS cells. Here is the method:
(§1) Images were obtained before and 30 min after agonist stimulation, and analyzed using IN Cell Analyzer 2000.
(§2) U-2 OS cells were seeded at a density of 3000 cells per well in a black 96-well clear-bottom plate in 100 μl of McCoy's 5A medium supplemented with 10% FBS. […] Two days post-transduction, cells were stimulated with GPCRx agonists for 30 min and fixed with 2% formaldehyde.

Assay [2] deals with T2, EDNRB-VC (human, UniProt P24530 27-442).
T2 construct: whole, on cells; Adenovirus-expressed in U-2 OS cells; not shown: VC155, C-terminal fragment of Venus
T2 sequence (looked up): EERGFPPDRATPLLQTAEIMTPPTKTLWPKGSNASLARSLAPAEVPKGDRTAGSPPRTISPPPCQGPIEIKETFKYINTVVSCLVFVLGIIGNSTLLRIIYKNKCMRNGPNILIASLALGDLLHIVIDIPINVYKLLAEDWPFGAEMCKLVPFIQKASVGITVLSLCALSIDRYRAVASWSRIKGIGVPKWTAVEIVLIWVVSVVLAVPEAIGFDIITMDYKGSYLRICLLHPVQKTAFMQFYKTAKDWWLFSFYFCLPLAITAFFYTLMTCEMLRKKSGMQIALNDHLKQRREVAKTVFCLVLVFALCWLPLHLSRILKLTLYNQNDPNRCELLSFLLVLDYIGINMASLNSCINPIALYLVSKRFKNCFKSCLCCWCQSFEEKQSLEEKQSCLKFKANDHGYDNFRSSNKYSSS
Described as above. The protocol: as §1, §2

Assay [3] has as its target T3, HRH1-VC (human, UniProt P35367 1-487).
T3 construct: whole, on cells; Adenovirus-expressed in U-2 OS cells; not shown: VC155, C-terminal fragment of Venus
The description is as above. Here is the method:
as §1, §2

Assay [4] concerns the target T4, MLNR-VC (human, UniProt O43193 1-412).
T4 construct: whole, on cells; Adenovirus-expressed in U-2 OS cells; not shown: VC155, C-terminal fragment of Venus
Described as above. Here is the method:
as §1, §2

Assay [5] concerns the target T5, NTSR1-VC (human, UniProt P30989 1-418).
T5 construct: whole, on cells; Adenovirus-expressed in U-2 OS cells; not shown: VC155, C-terminal fragment of Venus
The assay is described as above. Here is the method:
as §1, §2

Assay [6] has as its target T6, SSTR2-VC (human, UniProt P30874 1-369).
T6 construct: whole, on cells; Adenovirus-expressed in U-2 OS cells; not shown: VC155, C-terminal fragment of Venus
Described as above. The protocol:
as §1, §2

The target in assay [7] is T7, TACR3-VC (human, UniProt P29371 1-465).
T7 construct: whole, on cells; Adenovirus-expressed in U-2 OS cells; not shown: VC155, C-terminal fragment of Venus
T7 sequence (looked up): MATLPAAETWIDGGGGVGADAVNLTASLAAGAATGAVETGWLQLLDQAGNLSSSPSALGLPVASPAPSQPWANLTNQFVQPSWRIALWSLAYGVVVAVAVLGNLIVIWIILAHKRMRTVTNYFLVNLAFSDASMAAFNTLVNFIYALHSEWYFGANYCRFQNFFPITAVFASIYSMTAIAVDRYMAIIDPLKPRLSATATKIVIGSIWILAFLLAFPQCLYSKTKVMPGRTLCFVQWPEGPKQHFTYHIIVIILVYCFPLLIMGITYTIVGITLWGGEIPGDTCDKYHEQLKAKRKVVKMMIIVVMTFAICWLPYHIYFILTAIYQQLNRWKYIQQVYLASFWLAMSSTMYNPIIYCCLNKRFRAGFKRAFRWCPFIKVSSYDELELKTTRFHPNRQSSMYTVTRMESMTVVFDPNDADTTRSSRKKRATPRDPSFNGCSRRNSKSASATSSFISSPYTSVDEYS
The assay is described as above. The protocol: as §1, §2

For assay [8], the target named is T8, ADRB2-VC (human, UniProt P07550 1-413).
T8 construct: whole, on cells; Adenovirus-expressed in U-2 OS cells; not shown: VC155, C-terminal fragment of Venus
The assay is described as above. The protocol:
as §1, §2

In assay [9] the target is T9, APLNR-VC (human, UniProt P35414 1-380).
T9 construct: whole, on cells; Adenovirus-expressed in U-2 OS cells; not shown: VC155, C-terminal fragment of Venus
T9 sequence (looked up): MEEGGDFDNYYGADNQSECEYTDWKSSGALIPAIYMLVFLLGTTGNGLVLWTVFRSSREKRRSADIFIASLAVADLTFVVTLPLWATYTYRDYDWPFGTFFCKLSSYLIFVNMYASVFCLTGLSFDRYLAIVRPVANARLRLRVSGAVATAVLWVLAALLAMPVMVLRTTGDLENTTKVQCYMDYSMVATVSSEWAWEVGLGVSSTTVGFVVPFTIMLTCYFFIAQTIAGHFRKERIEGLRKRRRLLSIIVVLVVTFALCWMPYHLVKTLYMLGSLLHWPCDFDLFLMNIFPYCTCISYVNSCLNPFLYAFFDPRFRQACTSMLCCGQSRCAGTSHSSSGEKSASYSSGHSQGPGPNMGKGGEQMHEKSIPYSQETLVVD
Described as above. The protocol:
as §1, §2

In another assay the target is T10, ADRB2 (human, UniProt P07550 1-413).
T10 construct: whole, on cells; Untagged: adenovirus-expressed in U-2 OS or MDA-MB-231 cells, or endogenous in patient derived cells and PDX tissue; also called Adrenoceptor Beta 2; Ad-ADRB2
The experiment in a line: internalization inhibition assay, CXCR4-GFP U-2 OS cells transduced with GPCRx; CXCL12 and/or GPCRx antagonist. The protocol: (§3) Internalization of CXCR4-GFP was observed as GFP granules using IN Cell Analyzer 2500. Loss of GFP expression on the cell surface or appearance of GFP granules inside the cells were considered as CXCR4-GFP co-internalization.
(§4) CXCR4-GFP expressed U-2 OS cells were seeded at a density of 5000 cells per well in a black 96-well clear-bottom plate in 100 μl of McCoy's 5A medium supplemented with 10% FBS. On the following day, the cells were transduced with adenoviruses encoding GPCRx (30 MOI).

The target in a further assay is T11, CHRM1 (human, UniProt P11229 1-460).
T11 construct: whole, on cells; Untagged: adenovirus-expressed in U-2 OS or MDA-MB-231 cells, or endogenous in patient derived cells; also called Cholinergic Receptor Muscarinic 1
T11 sequence (looked up): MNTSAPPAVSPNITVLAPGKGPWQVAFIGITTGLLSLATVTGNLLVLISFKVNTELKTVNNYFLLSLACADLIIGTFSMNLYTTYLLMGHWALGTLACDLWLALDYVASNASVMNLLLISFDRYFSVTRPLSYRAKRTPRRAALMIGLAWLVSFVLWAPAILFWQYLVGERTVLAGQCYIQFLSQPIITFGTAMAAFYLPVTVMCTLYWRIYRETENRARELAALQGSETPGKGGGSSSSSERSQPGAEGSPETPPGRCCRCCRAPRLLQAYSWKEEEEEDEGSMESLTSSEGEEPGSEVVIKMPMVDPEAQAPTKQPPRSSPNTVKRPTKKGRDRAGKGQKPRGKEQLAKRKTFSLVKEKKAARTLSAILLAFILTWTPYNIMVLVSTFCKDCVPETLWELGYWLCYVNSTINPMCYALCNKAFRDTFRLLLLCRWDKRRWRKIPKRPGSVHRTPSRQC
The assay is described as above. The protocol: as §3, §4

The target of a further assay is T12, HRH1 (human, UniProt P35367 1-487).
T12 construct: whole, on cells; Untagged: adenovirus-expressed in U-2 OS or MDA-MB-231 cells, or endogenous in MDA-MB-231 cells; also called Histamine Receptor H1
Described as above. The protocol:
as §3, §4

Assay [10] concerns the target T1, CHRM1-VC. Briefly: BiFC, U-2 OS cells. Here is the method: (§5) Images of about 200 cells from each well were analyzed with Multi-target analysis software in IN Cell Developer ToolBox (GE Healthcare, Waukesha, Wis.). Cell boundary was marked based on Hoechst signal, and fluorescence intensity per cell was measured. Cells with fluorescence intensities higher than background level were considered as BiFC positive cells. […] Positive cells were determined, and positive cell count ratio (“BiFC score”) was calculated as (positive cells/total cells)×100 (see Table 4 below).

Assay [11] concerns the target T2, EDNRB-VC. The experiment in a line: BiFC, U-2 OS cells. Here is the method:
as §5

The target of assay [12] is T3, HRH1-VC. Briefly: BiFC, U-2 OS cells. The protocol: as §5
In assay [13] the target is T4, MLNR-VC. The experiment in a line: BiFC, U-2 OS cells. The protocol:
as §5

Assay [14] deals with T5, NTSR1-VC. The experiment in a line: BiFC, U-2 OS cells. Here is the method: as §5
A further assay deals with T13, PTGER2-VC (human, UniProt P43116 1-358).
T13 construct: whole, on cells; Adenovirus-expressed in U-2 OS cells; not shown: VC155, C-terminal fragment of Venus
Briefly: BiFC, U-2 OS cells. The protocol: as §5

The target in assay [15] is T7, TACR3-VC. The experiment in a line: BiFC, U-2 OS cells. The protocol: as §5
Assay [16] deals with T8, ADRB2-VC. The experiment in a line: BiFC, U-2 OS cells. The protocol: as §5
Assay [17] deals with T6, SSTR2-VC. Briefly: BiFC and co-internalization assay, U-2 OS cells.
Another assay addresses T14, CNR2-VC (human, UniProt P34972 1-360).
T14 construct: whole, on cells; Adenovirus-expressed in U-2 OS cells; also called Cannabinoid Receptor 2-VC; CB2; not shown: VC155, C-terminal fragment of Venus
Briefly: BiFC and co-internalization assay, U-2 OS cells.

Assay [18] has as its target T9, APLNR-VC. The experiment in a line: BiFC and co-internalization assay, U-2 OS cells.
The next assay deals with T15, GCGR-VC (human, UniProt P47871 26-477).
T15 construct: whole, on cells; Adenovirus-expressed in U-2 OS cells; also called glucagon receptor-VC; not shown: VC155, C-terminal fragment of Venus
Briefly: BiFC, U-2 OS cells co-expressing CXCR4-VN and GCGR-VC. Here is the method:
as §5

T5 sequence (P30989 whole entry, the tested form may be a part): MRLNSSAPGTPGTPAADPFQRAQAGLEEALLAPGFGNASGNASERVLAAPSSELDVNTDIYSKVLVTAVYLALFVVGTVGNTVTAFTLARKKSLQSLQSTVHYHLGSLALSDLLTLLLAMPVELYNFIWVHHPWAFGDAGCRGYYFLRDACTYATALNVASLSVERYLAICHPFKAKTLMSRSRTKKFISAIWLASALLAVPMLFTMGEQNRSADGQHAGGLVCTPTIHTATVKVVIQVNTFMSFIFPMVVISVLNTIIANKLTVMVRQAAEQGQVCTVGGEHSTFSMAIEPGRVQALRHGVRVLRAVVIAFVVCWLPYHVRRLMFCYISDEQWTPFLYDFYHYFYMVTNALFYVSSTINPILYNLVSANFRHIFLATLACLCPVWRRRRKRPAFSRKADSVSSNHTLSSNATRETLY
T3 sequence (P35367 whole entry, the tested form may be a part): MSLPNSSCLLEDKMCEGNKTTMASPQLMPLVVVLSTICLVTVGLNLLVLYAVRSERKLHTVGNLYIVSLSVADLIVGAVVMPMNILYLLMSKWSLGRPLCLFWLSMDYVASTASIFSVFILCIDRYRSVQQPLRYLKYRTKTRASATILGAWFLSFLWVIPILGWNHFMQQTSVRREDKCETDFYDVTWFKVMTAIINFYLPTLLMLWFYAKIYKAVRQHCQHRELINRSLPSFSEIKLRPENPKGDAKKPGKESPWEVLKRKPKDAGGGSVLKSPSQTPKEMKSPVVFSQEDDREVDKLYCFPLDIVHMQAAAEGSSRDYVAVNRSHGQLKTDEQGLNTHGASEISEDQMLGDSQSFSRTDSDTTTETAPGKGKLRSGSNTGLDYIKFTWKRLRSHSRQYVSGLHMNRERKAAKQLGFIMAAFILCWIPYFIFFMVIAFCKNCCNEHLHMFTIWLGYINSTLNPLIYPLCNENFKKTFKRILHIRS
T6 sequence (P30874 whole entry, the tested form may be a part): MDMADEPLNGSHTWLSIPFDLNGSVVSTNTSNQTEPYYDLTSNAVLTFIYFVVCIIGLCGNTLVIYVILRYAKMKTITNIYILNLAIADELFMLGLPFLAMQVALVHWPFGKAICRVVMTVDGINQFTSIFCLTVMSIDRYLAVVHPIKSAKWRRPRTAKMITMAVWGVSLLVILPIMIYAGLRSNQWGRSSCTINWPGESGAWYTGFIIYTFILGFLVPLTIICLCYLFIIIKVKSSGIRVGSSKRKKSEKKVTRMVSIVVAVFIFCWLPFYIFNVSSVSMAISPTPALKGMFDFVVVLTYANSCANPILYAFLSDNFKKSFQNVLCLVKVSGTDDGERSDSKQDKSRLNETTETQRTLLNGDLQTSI
T4 sequence (O43193 whole entry, the tested form may be a part): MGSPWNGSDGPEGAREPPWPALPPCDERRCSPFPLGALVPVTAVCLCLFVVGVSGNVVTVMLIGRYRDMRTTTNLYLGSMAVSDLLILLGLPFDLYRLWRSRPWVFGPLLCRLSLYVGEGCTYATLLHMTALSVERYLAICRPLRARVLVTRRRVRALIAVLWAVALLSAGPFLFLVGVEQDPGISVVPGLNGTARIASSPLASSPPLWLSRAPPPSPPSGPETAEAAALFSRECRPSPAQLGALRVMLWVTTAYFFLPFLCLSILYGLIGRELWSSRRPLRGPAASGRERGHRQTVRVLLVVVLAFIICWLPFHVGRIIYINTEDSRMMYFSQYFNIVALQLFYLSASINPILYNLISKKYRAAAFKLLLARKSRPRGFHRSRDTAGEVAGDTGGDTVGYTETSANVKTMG
T14 sequence (P34972 whole entry, the tested form may be a part): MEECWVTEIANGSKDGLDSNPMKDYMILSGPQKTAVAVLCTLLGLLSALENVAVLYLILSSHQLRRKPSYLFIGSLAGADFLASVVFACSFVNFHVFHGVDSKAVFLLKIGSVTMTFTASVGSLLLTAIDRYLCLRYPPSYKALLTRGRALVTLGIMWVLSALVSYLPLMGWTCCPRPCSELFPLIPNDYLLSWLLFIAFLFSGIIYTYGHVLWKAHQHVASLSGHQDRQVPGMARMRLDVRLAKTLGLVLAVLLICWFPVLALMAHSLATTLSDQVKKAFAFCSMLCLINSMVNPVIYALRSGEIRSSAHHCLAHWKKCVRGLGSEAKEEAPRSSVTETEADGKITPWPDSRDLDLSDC
T12 sequence (P35367 whole entry): as the sequence (P35367 whole entry, the tested form may be a part) above
T13 sequence (P43116 whole entry, the tested form may be a part): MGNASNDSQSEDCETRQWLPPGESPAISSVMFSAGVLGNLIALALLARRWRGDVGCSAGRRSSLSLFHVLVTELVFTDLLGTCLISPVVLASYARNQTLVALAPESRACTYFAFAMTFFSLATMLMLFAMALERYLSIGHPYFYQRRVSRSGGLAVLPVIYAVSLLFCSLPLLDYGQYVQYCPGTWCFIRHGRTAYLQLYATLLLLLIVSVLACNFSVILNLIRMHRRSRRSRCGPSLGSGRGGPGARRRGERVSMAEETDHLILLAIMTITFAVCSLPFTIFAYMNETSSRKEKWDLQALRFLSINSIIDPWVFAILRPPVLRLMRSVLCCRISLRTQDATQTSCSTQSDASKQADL
T15 sequence (P47871 26-477): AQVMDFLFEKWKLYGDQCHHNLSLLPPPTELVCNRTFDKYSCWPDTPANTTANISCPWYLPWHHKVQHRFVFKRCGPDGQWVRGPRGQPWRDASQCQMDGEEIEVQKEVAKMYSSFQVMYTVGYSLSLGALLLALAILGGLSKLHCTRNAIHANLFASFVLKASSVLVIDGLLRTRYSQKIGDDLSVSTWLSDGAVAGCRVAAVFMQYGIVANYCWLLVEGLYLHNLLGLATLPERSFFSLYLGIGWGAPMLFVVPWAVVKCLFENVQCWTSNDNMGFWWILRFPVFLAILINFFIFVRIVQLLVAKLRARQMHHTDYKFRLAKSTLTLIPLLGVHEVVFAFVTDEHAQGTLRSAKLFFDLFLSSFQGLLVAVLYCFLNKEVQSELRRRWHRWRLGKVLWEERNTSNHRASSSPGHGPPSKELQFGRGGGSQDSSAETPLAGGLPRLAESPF

B1: CXCR4-EGFP (receptor, human, UniProt P61073 1-352, looked up)
chain: MEGISIYTSDNYTEEMGSGDYDSMKEPCFREENANFNKIFLPTIYSIIFLTGIVGNGLVILVMGYQKKLRSMTDKYRLHLSVADLLFVITLPFWAVDAVANWYFGNFLCKAVHVIYTVNLYSSVLILAFISLDRYLAIVHATNSQRPRKLLAEKVVYVGVWIPALLLTIPDFIFANVSEADDRYICDRFYPNDLWVVVFQFQHIMVGLILPGIVILSCYCIIISKLSHSKGHQKRKALKTTVILILAFFACWLPYYIGISIDSFILLEIIKQGCEFENTVHKWISITEALAFFHCCLNPILYAFLGAKFKTSAQHALTSVSRGSSLKILSKGKRGGHSSVSTESESSSFHSS
notes: whole, on cells; also called CXCR4-GFP; CXCR-EGFP; not shown: EGFP/GFP from the pAdHTS-GFPC vector
In the case of B1, the binding result in the assay with CHRM1-VC [1], in the assay with EDNRB-VC [2], with HRH1-VC [3], with MLNR-VC [4], in the assay with NTSR1-VC [5] and with SSTR2-VC [6] was “binds” throughout. The binding result with TACR3-VC [7], in the assay with ADRB2-VC [8], with APLNR-VC [9], with ADRB2, with CHRM1 and with HRH1 was “binds” each time.

B2: CXCR4-VN (receptor, human, UniProt P61073 1-352, looked up)
chain: MEGISIYTSDNYTEEMGSGDYDSMKEPCFREENANFNKIFLPTIYSIIFLTGIVGNGLVILVMGYQKKLRSMTDKYRLHLSVADLLFVITLPFWAVDAVANWYFGNFLCKAVHVIYTVNLYSSVLILAFISLDRYLAIVHATNSQRPRKLLAEKVVYVGVWIPALLLTIPDFIFANVSEADDRYICDRFYPNDLWVVVFQFQHIMVGLILPGIVILSCYCIIISKLSHSKGHQKRKALKTTVILILAFFACWLPYYIGISIDSFILLEIIKQGCEFENTVHKWISITEALAFFHCCLNPILYAFLGAKFKTSAQHALTSVSRGSSLKILSKGKRGGHSSVSTESESSSFHSS
notes: whole, on cells; Adenovirus-expressed in U-2 OS cells; also called CXCR4 fused with N-terminal fragment of Venus; not shown: VNm10, N-terminal fragment of Venus (VN154 variant with L46F and L64F)
Regarding B2, the binding result with CHRM1-VC [10], with EDNRB-VC [11], in the assay with HRH1-VC [12], in the assay with MLNR-VC [13], with NTSR1-VC [14] and with PTGER2-VC was “binds” in each case. For the same molecule, the binding result is “binds” in the assay with TACR3-VC [15]; “binds” in the assay with ADRB2-VC [16]; “binds” in the assay with SSTR2-VC [17]; “binds” with CNR2-VC; “binds” with APLNR-VC [18]; “no binding” in the assay with GCGR-VC.

For the origin of these results see patent publication US20190183976A1 (GPCR THERAPEUTICS, published 2019).
